# Reference: patent US6150515, “Tat-SF: cofactor for stimulation of transcriptional elongation by HIV-1 Tat” (Massachusetts Institute of Technology, dated 2000)
# B1: Tat-Stimulatory Factor protein Tat-SF1 (pp140) (other)
# chain: MSGTNLDGNDEFDEQLRMQELYGDGKDGDTQTDAGGEPDSLGQQPTDTPYEWDLDKKAWFPKITEDFIATYQANYGFSNDGASSSTANVEDVHARTAEEPPQEKAPEPTDARKKGEKRKAESGWFHVEEDRNTNVYVSGLPPDITVDEFIQLMSKFGIIMRDPQTEEFKVKLYKDNQGNLKGDGLCCYLKRESVELALKLLDEDEIRGYKLHVEVAKFQLKGEYDASKKKKKCKDYKKKLSMQQKQLDWRPERRAGPSRMRHERVVIIKNMFHPMDFEDDPLVLNEIREDLRVECSKFGQIRKLLLFDRHPDGVASVSFRDPEEADYCIQTLDGRWFGGRQITAQAWDGTTDYQVEETSREREERLRGWEAFLNAPEANRGLSVQILSLLRKAGPSRARHFSEHPSTSKMNAQETATGMAFEEPIDEKKFEKTEDGGEFEEGASENNAKESSPEKEAEEGCPEKESEEGCPKRGFEGSCSQKESEEGNPVRGSEEDSPKKESKKKTLKNDCEENGLAKESEDDLNKESEEEVGPTKESEEDDSEKESDEDCSEKQSEDGSEREFEENGLEKDLDEEGSEKELHENVLDKELEENDSENSEFEDDGSEKVLDEEGSEREFDEDSDEKEEEEDTYEKVFDDESDEKEDEEYADEKGLEAADKKAEEGDADEKLFEESDDKEDEDADGKEVEDADEKLFEDDDSNEKLFDEEEDSSEKLFDDSDERGTLGGFGSVEEGPLSTGSSFILSSDDDDDDI
# modifications: phosphorylated by its associated kinase in the kinase reactions (gamma-32P ATP); sites not stated
# Molecular target: HIV-1 Tat, recombinant wild type Tat protein (HIV-1, UniProt P04608)
# Test: cell-based or functional assay
binder,measurement,value
B1,"fold activation by Tat of an HIV-1 LTR-CAT reporter (pBennCAT) in HeLa cells co-transfected with pSV-Tat-SF1, relative to empty vector",5.2 fold
